According to paper PMC7949077:

Columns and labels:
Test in all cases: SPR
La (lupus antigen, SSB) = settings: SPR: HBS-EP buffer, Biacore T200 SA chip, 1:1 fit. UV crosslinking/EMSA: 2x RNA-binding buffer listed as 5 mM HEPES, 25 mM KCl, 2 mM MgCl2, 2 mM DTT, 0.1 mM …
HuR (ELAVL1) = settings: HuR alone; SPR: HBS-EP buffer, Biacore T200 SA chip, 1:1 fit. UV crosslinking/EMSA: 2x RNA-binding buffer listed as 5 mM HEPES, 25 mM KCl, 2 mM MgCl2, 2 mM DTT, 0.1 mM …
[1] = tested on: La (lupus antigen, SSB);HuR (ELAVL1); settings: equimolar La and HuR, same total protein; 1:1 fit; SPR: HBS-EP buffer, Biacore T200 SA chip, 1:1 fit. UV crosslinking/EMSA: 2x RNA-binding buffer listed as 5 mM HEPES, 25 mM KCl, 2 mM MgCl2, 2 mM DTT, 0.1 mM …

PDCD4 3'UTR full length
Kd (La (lupus antigen, SSB); La alone, first experiment): 27 nM
Kd (La (lupus antigen, SSB); La alone, second experiment): 22 nM
Kd (La (lupus antigen, SSB); equimolar mix with HuR triple mutant (non-binding), same total protein): 27.5 nM
Kd (HuR (ELAVL1)): 42.7 nM
Kd [1]: 10.5 nM
